Experiments:
[1] = target: Staphylococcus aureus O-acetyl-L-serine sulfhydrylase (CysK) (S. aureus) (UniProt P63871); test: SPR
crystal structure = target: the molecule itself; test: crystal structure

Binder: MFYI [CymR 4]
- Kd [1]: 4.1 µM

B1: Staphylococcus aureus O-acetyl-L-serine sulfhydrylase (CysK) (enzyme, S. aureus, UniProt P63871 1-310, looked up)
chain: MAQKPVDNITQIIGGTPVVKLRNVVDDNAADVYVKLEYQNPGGSVKDRIALAMIEKAEREGKIKPGDTIVEPTSGNTGIGLAFVCAAKGYKAVFTMPETMSQERRNLLKAYGAELVLTPGSEAMKGAIKKAKELKEEHGYFEPQQFENPANPEVHELTTGPELLQQFEGKTIDAFLAGVGTGGTLSGVGKVLKKEYPNIEIVAIEPEASPVLSGGEPGPHKLQGLGAGFIPGTLNTEIYDSIIKVGNDTAMEMSRRVAKEEGILAGISSGAAIYAAIQKAKELGKGKTVVTVLPSNGERYLSTPLYSFDD
modifications: PLP cofactor in a Schiff base linkage with the ε-amino group of K46
- stoichiometry N (crystal structure): 2
